In PMC8395244, “The Oxoglutarate Binding Site and Regulatory Mechanism Are Conserved in Ammonium Transporter Inhibitors GlnKs from Methanococcales” (International Journal of Molecular Sciences, 2021):

Experiments:
[1] = target: MtGlnK1 (GlnK isoform 1 from Methanothermococcus thermolithotrophicus), recombinant, N-terminally tagged (Methanothermococcus thermolithotrophicus); experiment: crystal structure; sitting drop at 18 °C; crystallised with or without 2 mM ATP, 2 mM 2OG and 2 mM MgCl2; solved by molecular replacement with PDB 2J9D
[2] = target: MtGlnK2 (GlnK isoform 2 from Methanothermococcus thermolithotrophicus), recombinant, N-terminally tagged (Methanothermococcus thermolithotrophicus); experiment: as above

| stoichiometry N [1] | stoichiometry N [2] | Substance |
| --- | --- | --- |
| 3 | – | MtGlnK1 (GlnK isoform 1 from Methanothermococcus thermolithotrophicus), recombinant, N-terminally tagged (natural protein) |
| – | 3 | MtGlnK2 (GlnK isoform 2 from Methanothermococcus thermolithotrophicus), recombinant, N-terminally tagged (natural protein) |
